Source: IntAct's records for PubMed 30510991

B1: Forkhead box protein P3 (Homo sapiens), Q9BZS1 (parent)
chain: MPNPRPGKPSAPSLALGPSPGASPSWRAAPKASDLLGARGPGGTFQGRDLRGGAHASSSSLNPMPPSQLQLPTLPLVMVAPSGARLGPLPHLQALLQDRPHFMHQLSTVDAHARTPVLQVHPLESPAMISLTPPTTATGVFSLKARPGLPPGINVASLEWVSREPALLCTFPNPSAPRKDSTLSAVPQSSYPLLANGVCKWPGCEKVFEEPEDFLKHCQADHLLDEKGRAQCLLQREMVQSLEQQLVLEKEKLSAMQAHLAGKMALTKASSVASSDKGSCCIVAAGSQGPVVPAWSGPREAPDSLFAVRRHLWGSHGNSTFPEFLHNMDYFKFHNMRPPFTYATLIRWAILEAPEKQRTLNEIYHWFTRMFAFFRNHPATWKNAIRHNLSLHKCFVRVESEKGAVWTVDELEFRKKRSQRPSRCSNPTPGP

Variants of: B1
Settings: with ezh2_human EZH2, Q15910
ezh2_human EZH2, Q15910, sequence (Q15910 whole entry, looked up): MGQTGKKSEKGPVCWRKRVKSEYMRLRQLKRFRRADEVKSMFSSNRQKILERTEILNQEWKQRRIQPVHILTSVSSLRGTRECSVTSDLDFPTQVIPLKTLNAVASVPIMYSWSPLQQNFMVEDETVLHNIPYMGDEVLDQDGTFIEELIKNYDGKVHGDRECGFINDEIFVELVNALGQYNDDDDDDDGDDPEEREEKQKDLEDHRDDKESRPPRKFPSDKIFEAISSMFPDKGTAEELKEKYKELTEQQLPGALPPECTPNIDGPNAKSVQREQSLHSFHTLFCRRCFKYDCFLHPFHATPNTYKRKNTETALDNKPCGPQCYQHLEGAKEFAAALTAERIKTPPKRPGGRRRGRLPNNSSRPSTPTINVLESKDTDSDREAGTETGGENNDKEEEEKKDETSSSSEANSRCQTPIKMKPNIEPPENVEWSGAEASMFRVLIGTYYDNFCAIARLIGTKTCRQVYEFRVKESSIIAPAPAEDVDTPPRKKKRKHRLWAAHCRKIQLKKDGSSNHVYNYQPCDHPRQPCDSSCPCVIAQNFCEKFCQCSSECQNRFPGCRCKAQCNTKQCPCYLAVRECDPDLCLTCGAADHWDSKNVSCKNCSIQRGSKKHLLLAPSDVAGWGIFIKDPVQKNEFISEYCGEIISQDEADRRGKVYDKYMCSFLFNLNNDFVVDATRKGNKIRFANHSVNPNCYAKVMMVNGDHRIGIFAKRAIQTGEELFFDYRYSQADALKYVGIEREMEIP
For C232G, the “effect of a mutation on the interaction” value was “decreasing interaction”.
